From publication doi:10.1101/2023.08.10.552762 come the findings set out here.

Data set [1] deals with Escherichia coli SduA (Shedu system, E. coli KTE10) (Escherichia coli KTE10). Kind of data set: SEC-MALS. Background: Size exclusion chromatography separates by hydrodynamic size, large species first.
Data set [2] has as its target T1, EcSduA (Shedu SduA) (Escherichia coli, UniProt PDB:8PS5_1 1-411).
T1 sequence: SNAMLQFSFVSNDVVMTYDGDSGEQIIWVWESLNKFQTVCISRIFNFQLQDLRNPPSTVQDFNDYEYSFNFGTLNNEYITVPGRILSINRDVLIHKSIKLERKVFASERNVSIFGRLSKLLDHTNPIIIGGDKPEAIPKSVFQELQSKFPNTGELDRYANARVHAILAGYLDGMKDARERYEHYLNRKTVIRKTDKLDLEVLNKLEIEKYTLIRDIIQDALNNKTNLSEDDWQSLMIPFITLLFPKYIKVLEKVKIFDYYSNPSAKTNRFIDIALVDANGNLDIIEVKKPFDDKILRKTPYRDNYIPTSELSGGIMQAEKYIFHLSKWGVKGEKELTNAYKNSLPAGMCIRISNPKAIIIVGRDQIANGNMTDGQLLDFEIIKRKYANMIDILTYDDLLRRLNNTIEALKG
Briefly: cryo-EM structure.

For data set [3], the target named is T1, EcSduA (Shedu SduA). Kind of data set: fluorescence polarization. On the technique in general: Fluorescence polarisation rises when a labelled molecule tumbles more slowly, as on binding a larger partner.

Take “Escherichia coli SduA (Shedu system, E. coli KTE10) (enzyme)”: the stoichiometry N in data set [1] was determined as 4.

B1: 40 bp palindromic dsDNA oLL314 (dsDNA)
DNA 1: CTAGTGCATCTGAATCGTCATGACGATTCAGATGCACTAG
DNA 2: B1 DNA 1
Take B1: the binding result in the data set with EcSduA (Shedu SduA) [2] is reported as “binds”.

B2: 40 bp dsDNA oLL321/oLL322 (dsDNA)
DNA 1: GATACCAGCTCTATGTTGACCTCTCAGATCGGCACTACTT
DNA 2: AAGTAGTGCCGATCTGAGAGGTCAACATAGAGCTGGTATC
With B2, in the data set with EcSduA (Shedu SduA) [3], the Kd was found to be 11.9 ± 0.4 nM.

One may read the stoichiometry N as the number of molecules, sites or subunits per partner or assembly. The Kd is the equilibrium constant for the complex coming apart.
